# B1: purified DL8 drug-load variant of belantamab mafodotin (antibody, human IgG1, kappa)
# heavy: not shown
# light: not shown
# modifications: mcMMAF on each LC C214 (sequential numbering); mcMMAF on HC C224, HC C230 and HC C233 of both heavy chains (sequential numbering)
# notes: Antibody drug conjugate, drug load of eight
# B2: purified DL4b drug-load variant of belantamab mafodotin (antibody, human IgG1, kappa)
# heavy: not shown
# light: not shown
# modifications: mcMMAF on HC C230 and HC C233 of both heavy chains (sequential numbering)
# notes: Antibody drug conjugate, drug load of four at the hinge
# B3: purified DL2 drug-load variant of belantamab mafodotin (antibody, human IgG1, kappa)
# heavy: not shown
# light: not shown
# modifications: mcMMAF on LC C214 of one of the two light chains (sequential numbering); mcMMAF on HC C224 of one of the two heavy chains (sequential numbering)
# notes: Antibody drug conjugate, drug load of two; also called DL2a
# B4: purified DL0 drug-load variant of belantamab mafodotin (unconjugated belantamab) (antibody, human IgG1, kappa)
# heavy: not shown
# light: not shown
# notes: HIC-purified fraction of belantamab mafodotin
# B5: purified DL4a drug-load variant of belantamab mafodotin (antibody, human IgG1, kappa)
# heavy: not shown
# light: not shown
# modifications: mcMMAF on each LC C214 (sequential numbering); mcMMAF on each HC C224 (sequential numbering)
# notes: Antibody drug conjugate, drug load of four
# Target: T1, FcγRIIIa (UniProt P08637 17-208, limits assumed)
# T1 construct: also called FcyRIIIa
# Test: SPR, release and stability method, specific binding activity
# Protocol: (§1) Antigen, FcγRIIIa, and FcRn specific binding activity of the purified DL variants was measured using SPR. Antigen, FcγRIIIa and FcRN analyses were performed using a release and stability surface plasmon resonance (SPR) method. The specific binding activities measured were between 80-110% for the purified DL variants. […] Despite the trend observed, the decrease in binding activity as a function of drug load is minimal and remains within specification acceptance criteria. It has been observed that as the DAR increases, there is no significant change in antigen FcγRIIIa binding by SPR and antibody-dependent cell-mediated cytotoxicity (ADCC) activity.
# T1 sequence (P08637 17-208 limits assumed): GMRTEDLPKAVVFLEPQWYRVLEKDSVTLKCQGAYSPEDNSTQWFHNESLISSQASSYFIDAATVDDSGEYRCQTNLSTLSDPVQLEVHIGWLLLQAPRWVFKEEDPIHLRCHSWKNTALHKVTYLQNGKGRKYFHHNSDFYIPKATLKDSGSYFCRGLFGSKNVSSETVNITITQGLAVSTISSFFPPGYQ
row,Binder,FcyRIIIa Binding (%) (specific binding activity)
1,B1,82
2,B2,91
3,B3,104
4,B4,110
5,B5,103

# Target: T2, FcRn (UniProt P55899 24-297; P61769 21-119, limits assumed)
# T2 construct: also called FcRNn
# Test: as above
# Protocol: as §1
# T2 sequence (P55899 24-297 limits assumed, chain 1 of 2): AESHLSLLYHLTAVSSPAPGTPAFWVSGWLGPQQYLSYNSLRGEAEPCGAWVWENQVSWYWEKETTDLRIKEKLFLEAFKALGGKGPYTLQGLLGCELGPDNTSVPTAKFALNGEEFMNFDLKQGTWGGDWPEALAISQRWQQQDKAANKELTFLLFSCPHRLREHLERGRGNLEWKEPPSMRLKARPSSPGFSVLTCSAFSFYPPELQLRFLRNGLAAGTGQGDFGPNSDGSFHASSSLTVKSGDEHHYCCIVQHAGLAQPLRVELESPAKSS
# T2 sequence (P61769 21-119 limits assumed, chain 2 of 2): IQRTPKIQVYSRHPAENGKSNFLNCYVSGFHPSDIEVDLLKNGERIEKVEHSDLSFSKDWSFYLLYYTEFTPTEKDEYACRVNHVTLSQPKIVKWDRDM
row,Binder,FcRNn Binding (%) (specific binding activity)
1,B1,93
2,B2,99
3,B3,109
4,B4,108
5,B5,102

# Target: T3, BCMA (the 'Antigen' of the SPR antigen binding assay) (human, UniProt Q02223 1-54, limits assumed)
# T3 construct: also called human BCMA
# T3 sequence (looked up): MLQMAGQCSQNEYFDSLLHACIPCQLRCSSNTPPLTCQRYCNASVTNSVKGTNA
# Test: as above
# Protocol: as §1
row,Binder,Antigen Binding (%) (specific binding activity)
1,B1,86
2,B2,90
3,B3,99
4,B4,103
5,B5,95

# — patent US20240369568A1 (GlaxoSmithKline, published 2024)
